The experiment concerns the target SH2-GFP-tail substrate with the SH2 domain of human Abl1 (human; yeast) (UniProt P00519). In words: cell-based or functional assay.

Among the data in patent US20180327462A1 are substrate amount in cell lysate (SDS-PAGE, Typhoon fluorescence, ImageJ) and substrate turnovers per degradon molecule (10 nM degradon, varied substrate, GFP fluorescence) values, retold here.

Chain of UniProt P00519 (P00519 other isoform, or with tags, fused parts or gaps, form in doubt): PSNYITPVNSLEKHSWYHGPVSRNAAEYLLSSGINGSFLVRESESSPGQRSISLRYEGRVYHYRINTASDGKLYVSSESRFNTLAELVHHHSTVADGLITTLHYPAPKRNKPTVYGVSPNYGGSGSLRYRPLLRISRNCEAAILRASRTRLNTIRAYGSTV

“FLAG-hUbL-mB^HA4 (binding degradon; human Rad23b UbL domain fused N-terminally to the HA4 monobody) (from UniProt P54727 1-83) (designed binder)”: the substrate amount in cell lysate (SDS-PAGE, Typhoon fluorescence, ImageJ) came out at 4 fold.
For “UbL-mB^HA4 degradon (yeast Rad23 UbL domain fused N-terminally to the HA4 monobody) (from UniProt P32628 1-77) (designed binder)”, the substrate turnovers per degradon molecule (10 nM degradon, varied substrate, GFP fluorescence) was found to be 5 times.
